# Target: SARS-CoV-2 스파이크 D19 (VSV 슈도바이러스) (SARS-CoV-2) (UniProt P0DTC2)
# Test: cell-based or functional assay
substance,measurement,value
S2E12-LS (antibody),"EC50 (neutralisation, interpolated)",1.4 ng/mL
same,"EC90 (neutralisation, interpolated)",11.9 ng/mL
same,IC50 (neutralisation),1.4 ng/mL

# Source: patent publication KR20230010676A
